Experimental data reported in publication PMC9253517 (The Journal of Experimental Medicine, 2022).
Where a chain is given by its changes, count along the chain named.

B1: JN104 (antibody, V domains shown)
VH: QVQLQESGPGLVKPSGTLSLTCAVSGGSISSNKWWSWVRQPPGKGLEWIGEIYHSGSTNYNPSLKSRVTISVDKSKNQFSLKLSSVTAADTAVYYCAILRYGSGSSLPPDNWGQGTLVTVSS
VL: EIVMTQSPATLSVSPGERATLSCRASQIISNNLAWHQQKPGQAPRLLIYGASTRATGIPARFSGSGSGTEFTLTISSLQSEDFAVYYCQQYNNWPPLLTFGGGTKVEIK
B2: JN010 (antibody, V domains shown)
VH: EVQLVESGGDLIQPGGSLKLSCAASGVTVSSNYMTWVRQAPGKGLEWVSLIYSGGSTFYADSVKGRFTISRDNSKNTLYLLMNSLRVEDTAVYYCARDLRYYGMDVWGQGTTVTVSS
VL: QTVVTQEPSFSVFPGGTVTLTCGLSSGSVSTNNYPTWYQQTPGQPPRTLIYSTDTRSSGVPDRFFGSILGNKAALTITGTQADDESHYYCVLLVGSGANAKWVFGGGTKLTVL
B3: JN003 (antibody, V domains shown)
VH: EVQLVESGGGLVQPGGSLRLSCAASGFTFNSYWMTWIRQAPGKGLEWVANIAPDGSDTYYVDSVRGRFIISRDNAKNSLYLHMNSLRPEDTAVYYCANTPAAVGEYWGQGTLVTVSS
VL: B2 VL with T2A, F10L, F13S, L20V, I50M, D54N, S58P, P61L, F65S, T80A
B4: JN030 (antibody, V domains shown)
VH: EVQLVESGGGLVKPGGSLRLSCAASGFTFSNYNMNWVRQAPGKGLEWVSSISTSGSFIYYADSVKGRFTISRDNAKNSLYLQMNSLRAEDTAVYYCARDTTPYSSGWYLWYFDLWGRGTLVTVSS
VL: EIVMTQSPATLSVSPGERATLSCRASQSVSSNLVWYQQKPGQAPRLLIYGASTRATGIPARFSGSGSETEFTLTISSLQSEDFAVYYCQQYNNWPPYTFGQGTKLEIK
B5: JN222 (antibody, V domains shown)
VH: EVQLVESGGGLVQPGGSLRLSCAASGFTFSRYWMSWVRQAPGKGLEWVANIKGDGKYYVDSLKGRFTISGDNAENSLYLQMNSLRAEDTAMYYCARYLAETGALDIWGQGTMVTVSS
VL: QSALTQPRAVSGSPGQSVTISCTGTSSDVGGYNYVSWYQQHPGKAPKLMIYDVSKRPSGVPDRFSGSKSGNTASLTISGLQAEDEADYYCYSFSGRYTSYVFGIGTKVTVL
B6: JN223 (antibody, V domains shown)
VH: EVQLLESGGGLVQPGGSLRLSCAASRFTFSNFAMSWVRQAPGKGLEWVSAISGSGGSTYYADSVKGRFIISRDNSKNTLFLQMNSLRAEDTAVYFCAKDLPYDNTGARFDYWGQGTLVTVSS
VL: SYELTQPPSVSVSPGQTARITCSGDALPKKYAYWYQQKSGQAPVLVIYEDSKRPSGIPERFSGSSSGTMATLTISGAQVEDEADYYCYSTDSTGNHRGVFGGGTKLTVL
B7: JN013 (antibody, V domains shown)
VH: QLQLQESGPGLVKPSETLSLTCTVSGGSISSSSYYWGWIRQPPGKGLEWIGSIYYSGSTYYNPSLKSRVTISVDTSKKQFSLKLSSVTAADTAVYYCARTYYDYIWGSLLGDFWGQGTLVTVSS
VL: QSALTQPRSVSGSPGQSVTISCTGTSSDVGGYNYVSWYQQHPGKAPKLMIYDVSKRPSGVPDRFSGSKSGNTASLTISGLQAEDEADYYCCSYAGSYWVFGGGTKLTVL
B8: JN017 (antibody, V domains shown)
VH: EVQLVESGGGLVQPGGSLRLSCAASGFTFTNHWMTWVRQAPGRGLEWVANIEGDGSDKYYVDSVKGRFTISRDNAKYSLYLHMNSLRGEDTAVYYCARHSGTYHGLDYWGQGTLVTVSS
VL: B7 VL with Q40E, G66S, C91Y, S92A, Y93F, S96T, Y97T, V99M
B9: JN026 (antibody, V domains shown)
VH: QVQLQESGPGLVKPSETLSLTCTVSGGSISSYYWSWIRQPPGKGLEWIGYIYYSGSTNYNPSLKSRVTISVDTSKNQFSLKLSSVTAADTAVYYCARHSLTYYYDRSDYKGAFDIWGQGTMVTVSS
VL: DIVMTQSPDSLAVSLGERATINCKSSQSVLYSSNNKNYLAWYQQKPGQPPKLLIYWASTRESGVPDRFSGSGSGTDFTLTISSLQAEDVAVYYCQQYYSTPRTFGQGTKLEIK
B10: JN022 (antibody, V domains shown)
VH: B9 VH with G27D, S30R, S31N, I48M, R106S
VL: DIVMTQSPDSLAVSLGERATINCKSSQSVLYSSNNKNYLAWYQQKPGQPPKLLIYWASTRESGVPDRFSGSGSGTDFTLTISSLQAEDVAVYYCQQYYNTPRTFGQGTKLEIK
B11: JN028 (antibody, V domains shown)
VH: EVQLVESGGGLVQPGGSLRLSCAASGFTFSSYSMNWVRQAPGKGLEWVSYISSSSSTIYYADSVKGRFTISRDNAKNSLYLQMNSLRDEDTAVYYCAPLRVLGGMDVWGQGTTVTVSS
VL: SYELTQPPSVSVSPGQTARIICSGDALPKQYAYWYQQKPGQAPVLVIYKDSERPSGIPERFSGSSSGTTVTLTISGVQAEDEADYYCQSADSSGWVFGGGTKLTVL
B12: JN219 (antibody, V domains shown)
VH: QLQLQESGPGLVKPSETLSLTCTVSGGSISSSSYYWGSYYWGWIRQPPGKGLEWIASIYYSGTTYYNPSLKSRVTISVDTSKNQFSLKLSSVTAADTAVYYCASRYCSGGSCSLDYWGQGTLVTVSS
VL: QSALTQPRSLSGSPGQSVTISCTGTSSDVGSYNYVSWYQQHPGKAPKLMIYDVSKRPSGVPDRFSGSKSGNTASLTISGLQAEDEADYYCCSYAGSYTLWVFGGGTKLTVL
B13: JN015 (antibody, V domains shown)
VH: QLQLQESGPGLVKPSETLSLTCTVSGGSISGSSYYWGWIRQPPGKGLEWFGSIYYSGTTYYNPSLKSRVAISVDTSKKQFSLKLSSVTAADTAVYYCAARYFDWSVEYWGQGTLVTVSS
VL: B12 VL with L10V, S31G, H41Q, Y89H, L99Y, V101L
B14: JN232 (antibody, V domains shown)
VH: EVQLVQSGAEVKKPGESLNISCKGSGYSFTNYWIGWVRQMPGKGLEWMGIIYPGDSDTRYSPSFQGQVTISADKSISTVFLQWSSLKASDTAMYYCVRHDVLAVLMGGVTFDIWGQGTMVTVSS
VL: EIVLTQSPGTLSLSPGERATLSCRASQSISSSYLAWYQQKSGQAPRLLIYGASSRATGIPDRFSGSGSGTDFTLTISRLEPEDFAVYYCQQYGGSPMYTFGQGTKLEIK
B15: JN008 (antibody, V domains shown)
VH: EVQLVESGGDLIQPGGSLRLSCAASGFTVSSNYMNWVRQAPGKGLEWVSIIYSGGSTFYADSVKGRFTISRDNSKNTLYLQMNSLRVEDTATYFCARSYGDYYFDSWGQGTLVTVSS
VL: EIVLTQSPATLSLSPGERATLSCRASQSVSSYLAWYQQKPGQAPRLLIYDASNRATGIPARFSGSGSGTDFTLTISSLEPEDFAVYYCQQRSNWPPSFTFGPGTKVDIK
B16: JN005 (antibody, V domains shown)
VH: QVQLVESGGGLVEPGGSLRLSCAASGFTFSDYFMSWIRQAPGRGLEWVSFITTSGSTIYYADSVKGRFTISRDNAKNSLYLQMNSLRAEDTAVYYCARRSGGYYDILTGPYGLDVWGQGTTVTVSS
VL: not shown
B17: JN012 (antibody, V domains shown)
VH: QLQLQESGPGLVKPSETLSLTCTVSGGSISSGSYYWVWIRQPPGKGLEWIGSVYYSGTTYYNPSLKSRVTISIDTSKNQFSLRLSSVTAADTAVYYCATNNYSFLTGYYVLDYWGQGTLVTVSS
VL: SYELTQPPSVSVSLGQMARITCSGEALPKTYAYWYQQKPGQFPVLVIYKDSERPSGIPERFSGSRSGTIVTLTISGVQAEDEADYYCLSTDISGTWVFGGGTKLTVL
B18: JN218 (antibody, V domains shown)
VH: EVQLVESGGGLVKPGGSLRLSCAASGFTFSSYTMNWVRQAPGKGLEWVSSISTGSSNIYYTDSVKGRFTISRDNARNSLSLQMNSLRAEDTAVYYCAREGRFIGTGYWSDFSYALDVWGQGTTVTVSS
VL: EIVLTQSPGTLSLSPGERATLSCRASQSVSSSSLAWYQQTPGQAPRLLIYGASSRATGIPDRFSGSGSGTDFTLTISRLEPEDFAVYYCQQYGSSVGAFGQGTKLEIK
B19: JN018 (antibody, V domains shown)
VH: QVQLQESGPGLVKPSETLSLTCTVSGGSISGSYWSWMRQPAGKPLEWIGRIYVSGSYNRNPSLSSRVTVSEDTAKNQISLRLTSVTAADTAVYYCAREIMGWYFDLWGRGTLVTVSS
VL: EIVMTQSPGTLSVSPGERATLSCRASQSVRSSLAWYQQKPGQAPRLLIYDASTRATGIPARFSGSGSGTEFTLTISSLQSEDFAIYLCQQYYNWPSYTFTQGTKLEIK
B20: JN225 (antibody, V domains shown)
VH: EVQLVESGGGLVQPGGSLRLSCGASGFTLGSFWMHWVRQAPGKGLEWVGDINGDGSAKYYADSVRGRFTISRDNAENSLFLQMNSLRVEDTALYYCARGAAWLDYWGQGTLVTVSS
VL: QSALTQPASVSGSPGQSITISCTGTSSDVGGYNYVSWYQQHPGKAPKLIIYDVTNRPSGVSNRFSGSKSGNTASLTISGLQAEDEADYFCDSYRSSSPPSYVFGTGTKVTVL
B21: JN033 (antibody, V domains shown)
VH: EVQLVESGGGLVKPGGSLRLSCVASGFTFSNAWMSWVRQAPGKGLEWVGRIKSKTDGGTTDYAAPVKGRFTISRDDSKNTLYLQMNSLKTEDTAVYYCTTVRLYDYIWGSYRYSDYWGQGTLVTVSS
VL: DIQLTQSPFSLSASVGDRVTITCRASQGISSYLAWYQQKPGKAPKLLIYAASTLQSGVPSRFSGSGSGTEFTLTISSLQPEDFATYYCQQLNSYPPNTFGPGTKVDIK
B22: JN105 (antibody, V domains shown)
VH: QVQLVQSGAEVKKPGASVKVSCKASGYTFTSYGISWVRQAPGQGLEWMGWISAYNGNTNYAQKLQGRVTMTTDTSTSTAYMELRSLRSDDTAVYYCARDLQRAGPWADYDFWSGYYPPSNMDVWGQGTTVTVSS
VL: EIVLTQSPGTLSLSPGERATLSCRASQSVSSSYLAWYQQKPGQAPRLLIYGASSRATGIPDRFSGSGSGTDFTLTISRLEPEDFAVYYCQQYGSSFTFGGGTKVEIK
B23: JN226 (antibody, V domains shown)
VH: QVQLVQSGAEVKKPGSSVKVSCKASGGTFSSYAISWVRQAPGQGLEWMGGIIPIFGTANYAQKFQGRVTITADKSTSTAYMELSSLRSEDTAVYYCAMLGAGSPLRGIFGVVMTDGDGMDVWGQGTTVTVSS
VL: QSVLTQPPSVSAAPGQKVTISCSGSSSNIGNNYVSWYQQLPGTAPKLLIYDNNKRPSGIPDRFSGSKSGTSATLGITGLQTGDEADYYCGTWDSSLSAGRVFGGGTKLTVL
B24: JN236 (antibody, V domains shown)
VH: QVQLQESGPRLVKPSETLSLTCTVSGGSINDYYWSWIRQPPGKGLEYLGYIYYTGTTNYNPSLQSRLTMSVDTSKNQFSLKVNYVSAADTAVYYCARHSTGGSYPLDSWGRGILVTVSS
VL: DIVMTQSPLTLPVTPGEPASISCRSSQSLLHSNGHNYVDWYLQKPGQSPQLLIHLGSNRASGVPDRFSGSGSGTDFTLKISRVEAEDVGVYFCMQALQSRTFGQGTKVEIK

Target: SARS-CoV-2 Wuhan-Hu-1 NTD (SARS-CoV-2, UniProt P0DTC2 14-307)
Assay: cell-based or functional assay

Binder	neutralisation IC50, WT (293TAce2)
B1	> 1 µg/mL
B2	> 1 µg/mL
B3	> 1 µg/mL
B4	0.348 µg/mL
B5	> 1 µg/mL
B6	> 1 µg/mL
B7	> 1 µg/mL
B8	> 1 µg/mL
B9	> 1 µg/mL
B10	> 1 µg/mL
B11	> 1 µg/mL
B12	> 1 µg/mL
B13	> 1 µg/mL
B14	> 1 µg/mL
B15	> 1 µg/mL
B16	> 1 µg/mL
B17	> 1 µg/mL
B18	> 1 µg/mL
B19	> 1 µg/mL
B20	> 1 µg/mL
B21	> 1 µg/mL
B22	> 1 µg/mL
B23	> 1 µg/mL
B24	> 1 µg/mL
